According to the DeepSol protein solubility set:

Test: soluble on expression in E. coli; label from the status in PepcDB or PDB records

Row | Sequence | soluble on expression in E. coli
1 | GIDIDLQMLGERLLKNKIGSIVAIEPETGEILCMVSSPDFDPRLMIGRQRGKNHLMLQRDPMKPLLNRSIMGVYPPGSTFKTAQALTFLQEGIIQTNTPAFPCAHGFNYGSLHVGCHAHGSPLPLIPAIATSCNSYFCWGLFRMFGDRKYGSSQNAITVWKDHMVSQGFGYKLGVDLPGEKRGLIPNAQFYDKAYRGRWNGLTVISIAIGQGEILATPLQIANLGATIANRGHFITPHIVKEIQDEQLDSLYRVPRKTSIDRKHYEDVVTGMRAAVTGGTCRVAGAILPDVEVCGKTGTAQNRGHDHSVFMGFAPMNNPKIAIAVYVENGGFGAVYGVPIGALMMEQYLKGKLSPEN | not soluble
2 | PSPGGQMHAGISSFQQSNSSGTYGPQMSQYGPQGNYSRPPAYSGVPSASYSGPGPGMGISANNQMHGQGPSQPCGAVPLGRMPSAGMQNRPFPGNMSSMTPSSPGMSQQGGPGMGPPMPTVNRKAQEAAAAVMQAAANSAQSRQGSFPGMNQSGLMASSSPYSQPMNNSSSLMNTQAPPYSMAPAMVNSSAASVGLADMMSPGESKLPLPLKADGKEEGTPQPESKSKDSYSSQGISQPPTPGNLPVPSPMSPSSASISSFHGDESDSISSPGWPKTPSSPKSSSSTTTGEKITKVYELGNEPERKLWVDRYLTFMEERGSPVSSLPAVGKKPLDLFRLYVCVKEIGGLAQVNKNKKWRELATNLNVGTSSSAASSLKKQYIQYLFAFECKIERGEEPPPEVFSTGDTKKQPKLQPPSPANSGSLQGPQTPQSTGSNSMAEVPGDLKPPTPASTPHGQMTPMQGGRSSTISVHDPFSDVSDSSFPKRNSMTPNAPYQQGMSMPDVMGRMPYEPNKDPFGGMRKVPGSSEPFMTQGQMPNSSMQDMYNQSPSGAMSNLGMGQRQQFPYGASYDRRHEPYGQQYPGQGPPSGQPPYGGHQPGLYPQQPNYKRHMDGMYGPPAKRHEGDMYNMQYSSQQQEMYNQYGGSYSGPDRRPIQGQYPYPYSRERMQGPGQIQTHGIPLQMMGGPLQSSSSEGPQQNMWAARNDMPYPYQNRQGPGGPTQAPPYPGMNRTDDMMVPDQRINHESQWPSHVSQRQPYMSSSASMQPITRPPQPSYQTPPSLPNHISRAPSPASFQRSLENRMSPSKSPFLPSMKMQKVMPTVPTSQVTGPPPQPPPIRREITFPPGSVEASQPVLKQRRKITSKDIVTPEAWRVMMSLKSGLLAESTWALDTINILLYDDSTVATFNLSQLSGFLELLVEYFRKCLIDIFGILMEYEVGDPSQKALDHNAARKDDSQSLADDSGKEEEDAECIDDDEEDEEDEEEDSEKTESDEKSSIALTAPDAAADPKEKPKQASKFDKLPIKIVKKNNLFVVDRSDKLGRVQEFNSGLLHWQLGGGDTTEHIQTHFESKMEIPPRRRPPPPLSSAGRKKEQEGKGDSEEQQEKSIIATIDDVLSARPGALPEDANPGPQTESSKFPFGIQQAKSHRNIKLLEDEPRSRDETPLCTIAHWQDSLAKRCICVSNIVRSLSFVPGNDAEMSKHPGLVLILGKLILLHHEHPERKRAPQTYEKEEDEDKGVACSKDEWWWDCLEVLRDNTLVTLANISGQLDLSAYTESICLPILDGLLHWMVCPSAEAQDPFPTVGPNSVLSPQRLVLETLCKLSIQDNNVDLILATPPFSRQEKFYATLVRYVGDRKNPVCREMSMALLSNLAQGDALAARAIAVQKGSIGNLISFLEDGVTMAQYQQSQHNLMHMQPPPLEPPSVDMMCRAAKALLAMARVDENRSEFLLHEGRLLDISISAVLNSLVASVICDVLFQIGQL | soluble
3 | SASSSKALIESIGSLDKDSYVSLLSKLIGESKFVQNNPPELIPQEDLIVKHVLDSLRPYSTETGGGPLVINHVAYHSGRGNLIVEYPGSVPGKILSFVGMHMDVVTANPDDWEFDPFSLSIDGDKLRGRGTTDCLGHVALVTELMKKLGQAKPALKSTVVAVFIASEENSSIPGVGVDMLVKDKLLDKLKSGPLYWIDTADKQPCVGTGGMIPWKLQFTGKLFHSGLAHKAINAMELAMEGLKEIQARFYRDFPPHPQEEVYGFATPSTMKPTQWCYPAGGINQIPGECTVSGDVRLTPFYDVKEVITKLQEYVDDINGNIERLETRGPVSKYVLPDENLRGRLTLSFDEASAGVACNLDSPGFHVLCKATEEVVGHVKPYSITGTLPLIRDLQDEGFDVQTSGYGLMATYHAKNEYCLLTDMCQGFDVFIRIISQLEQV | soluble
4 | MAHHHHHHMATIGMFNEEGENVDLYIPRKCHATTTLIEAHDHAAVQISIANVGPNGVINGTTTTLCIAGYLRSQGESDHAINHITIDRGIMRIKTGKPKRASKSKSKKPAAKGAAAGAAAQKGARPPAQKGARPPAQKGARPPAQKGARPPAQKGARPPAQKGAAPARKNRA | soluble
